Data from patent US20210388087A1.
Substitutions are numbered along the chain they refer to. Numbers in names are those of the source. Values belong to the binder of their own block, whether it stands above or below them.

How the values were obtained:
[1] = biological target: Human CD137 ECD (human); test: single mutant vs template dBBDu183H
[2] = biological target: Human CD137 ECD (human); test: SPR, vs parent H183/L072

Chain of Human CD137 ECD (human) (chain, as listed by the source limits assumed): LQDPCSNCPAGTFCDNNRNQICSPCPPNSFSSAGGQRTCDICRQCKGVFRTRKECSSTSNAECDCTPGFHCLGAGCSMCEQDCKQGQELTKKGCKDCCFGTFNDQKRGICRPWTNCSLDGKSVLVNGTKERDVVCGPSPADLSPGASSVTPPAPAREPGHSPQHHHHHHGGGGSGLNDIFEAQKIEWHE

B1: H183/L072 VH F29A (antibody, name in Kabat numbering, V domains shown)
VH: QVQLVESGGGLVQPGRSLRLSCAASGFTASNAWMHWVRQAPGKGLEWVAQIKDKGNAYAAYYAPSVKGRFTISRDDSKNSIYLQMNSLKTEDTAVYYCHYVHYASASTVLPAFGVDAWGQGTTVTVSS
VL: DIVMTQSPLSLPVTPGEPASISCQASQELVHMNRNTYLHWYQQKPGQAPRLLIYKVSNRFPGVPDRFSGSGSGTDFTLKISRVEAEDVGVYYCAQGTSVPFTFGQGTKLEIK
fold change of affinity [1]: 0 fold

B2: H183/L072 VH W33A (antibody, name in Kabat numbering, V domains shown)
VH: B1 VH with A29F, W33A
VL: B1 VL
fold change of affinity [1]: 0 fold

B3: dBBDu183H A102Y / dBBDu072L (antibody, name in Kabat numbering, V domains shown)
VH: B1 VH with A29F, A117Y
VL: B1 VL
fold change of affinity [2]: 0 fold

B4: H183/L072 VH D52aA (antibody, name in Kabat numbering, V domains shown)
VH: B1 VH with A29F, D53A
VL: B1 VL
fold change of affinity [1]: 0 fold

B6: H183/L072 VH N53I (antibody, name in Kabat numbering, V domains shown)
VH: B1 VH with A29F, N56I
VL: B1 VL
fold change of affinity [1]: 0 fold

B7: dBBDu183H D101Y / dBBDu072L (antibody, name in Kabat numbering, V domains shown)
VH: B1 VH with A29F, D116Y
VL: B1 VL
fold change of affinity [2]: 0 fold

B8: H183/L072 VH Y55I (antibody, name in Kabat numbering, V domains shown)
VH: B1 VH with A29F, Y58I
VL: B1 VL
fold change of affinity [1]: 0 fold

B13: H183/L072 VH N53L (antibody, name in Kabat numbering, V domains shown)
VH: B1 VH with A29F, N56L
VL: B1 VL
fold change of affinity [1]: 0 fold

B14: H183/L072 VH I51P (antibody, name in Kabat numbering, V domains shown)
VH: B1 VH with A29F, I51P
VL: B1 VL
fold change of affinity [1]: 0 fold

B15: H183/L072 VH H35L (antibody, name in Kabat numbering, V domains shown)
VH: B1 VH with A29F, H35L
VL: B1 VL
fold change of affinity [1]: 0 fold

B18: H183/L072 VH K52I (antibody, name in Kabat numbering, V domains shown)
VH: B1 VH with A29F, K52I
VL: B1 VL
fold change of affinity [1]: 0 fold

B19: H183/L072 VH D52aM (antibody, name in Kabat numbering, V domains shown)
VH: B1 VH with A29F, D53M
VL: B1 VL
fold change of affinity [1]: 0 fold

B20: dBBDu183H G100hY / dBBDu072L (antibody, name in Kabat numbering, V domains shown)
VH: B1 VH with A29F, G114Y
VL: B1 VL
fold change of affinity [2]: 0 fold

B22: H183/L072 VH H35P (antibody, name in Kabat numbering, V domains shown)
VH: B1 VH with A29F, H35P
VL: B1 VL
fold change of affinity [1]: 0 fold

B23: H183/L072 VH W33M (antibody, name in Kabat numbering, V domains shown)
VH: B1 VH with A29F, W33M
VL: B1 VL
fold change of affinity [1]: 0 fold

B24: H183/L072 VH H35M (antibody, name in Kabat numbering, V domains shown)
VH: B1 VH with A29F, H35M
VL: B1 VL
fold change of affinity [1]: 0 fold

B25: H183/L072 VH Q50A (antibody, name in Kabat numbering, V domains shown)
VH: B1 VH with A29F, Q50A
VL: B1 VL
fold change of affinity [1]: 0 fold

B26: H183/L072 VH K52P (antibody, name in Kabat numbering, V domains shown)
VH: B1 VH with A29F, K52P
VL: B1 VL
fold change of affinity [1]: 0 fold

B27: H183/L072 VH N53M (antibody, name in Kabat numbering, V domains shown)
VH: B1 VH with A29F, N56M
VL: B1 VL
fold change of affinity [1]: 0 fold

B29: H183/L072 VH D52aI (antibody, name in Kabat numbering, V domains shown)
VH: B1 VH with A29F, D53I
VL: B1 VL
fold change of affinity [1]: 0 fold

B31: dBBDu183H V100iY / dBBDu072L (antibody, name in Kabat numbering, V domains shown)
VH: B1 VH with A29F, V115Y
VL: B1 VL
fold change of affinity [2]: 0 fold

B32: H183/L072 VH H35A (antibody, name in Kabat numbering, V domains shown)
VH: B1 VH with A29F, H35A
VL: B1 VL
fold change of affinity [1]: 0 fold

Other lines, results leading:

fold change of affinity [1]: 0 fold
B5: H183/L072 VH N31M (antibody, name in Kabat numbering, V domains shown)
VH: B1 VH with A29F, N31M
VL: B1 VL

fold change of affinity [1]: 0 fold
B9: H183/L072 VH K52A (antibody, name in Kabat numbering, V domains shown)
VH: B1 VH with A29F, K52A
VL: B1 VL

fold change of affinity [1]: 0 fold
B10: H183/L072 VH A57L (antibody, name in Kabat numbering, V domains shown)
VH: B1 VH with A29F, A60L
VL: B1 VL

fold change of affinity [1]: 0 fold
B11: H183/L072 VH Q50P (antibody, name in Kabat numbering, V domains shown)
VH: B1 VH with A29F, Q50P
VL: B1 VL

fold change of affinity [1]: 0 fold
B12: H183/L072 VH D52aL (antibody, name in Kabat numbering, V domains shown)
VH: B1 VH with A29F, D53L
VL: B1 VL

fold change of affinity [1]: 0 fold
B16: H183/L072 VH M34A (antibody, name in Kabat numbering, V domains shown)
VH: B1 VH with A29F, M34A
VL: B1 VL

fold change of affinity [1]: 0 fold
B17: H183/L072 VH N53A (antibody, name in Kabat numbering, V domains shown)
VH: B1 VH with A29F, N56A
VL: B1 VL

fold change of affinity [1]: 0 fold
B21: H183/L072 VH H35I (antibody, name in Kabat numbering, V domains shown)
VH: B1 VH with A29F, H35I
VL: B1 VL

fold change of affinity [1]: 0 fold
B28: H183/L072 VH A32P (antibody, name in Kabat numbering, V domains shown)
VH: B1 VH with A29F, A32P
VL: B1 VL

fold change of affinity [1]: 0 fold
B30: H183/L072 VH W33P (antibody, name in Kabat numbering, V domains shown)
VH: B1 VH with A29F, W33P
VL: B1 VL

fold change of affinity [1]: 0 fold
B33: H183/L072 VH W33I (antibody, name in Kabat numbering, V domains shown)
VH: B1 VH with A29F, W33I
VL: B1 VL
